Experimental data: patent publication US20120122239A1

Tests used:
[1] = target: glycosylated human proBNP (HyTest, Turku, Finland; Catalog No. 8GOB2) (human); assay: sandwich CMIA, capture 15F11, analyte 86.6 pM
[2] = target: human NT-pro B-type natriuretic peptide (HyTest, Turku, Finland; Catalog No. 8NT1) (human); assay: sandwich CMIA, capture 15F11, analyte 86.6 pM
[3] = target: human pro B-type natriuretic peptide (HyTest, Turku, Finland; Catalog No. 8PRO8) (human); assay: sandwich CMIA, capture 15F11, analyte 86.6 pM
[4] = target: glycosylated human proBNP (HyTest, Turku, Finland; Catalog No. 8GOB2) (human); assay: sandwich CMIA, capture 15F11, 43.3 pM, against human NT-proBNP
[5] = target: human pro B-type natriuretic peptide (HyTest, Turku, Finland; Catalog No. 8PRO8) (human); assay: as above
[6] = target: glycosylated human proBNP (HyTest, Turku, Finland; Catalog No. 8GOB2) (human); assay: sandwich CMIA, capture 15F11, analyte 43.3 pM
[7] = target: human NT-pro B-type natriuretic peptide (HyTest, Turku, Finland; Catalog No. 8NT1) (human); assay: sandwich CMIA, capture 15F11, analyte 43.3 pM
[8] = target: human pro B-type natriuretic peptide (HyTest, Turku, Finland; Catalog No. 8PRO8) (human); assay: sandwich CMIA, capture 15F11, analyte 43.3 pM
[9] = target: glycosylated human proBNP (HyTest, Turku, Finland; Catalog No. 8GOB2) (human); assay: sandwich CMIA, capture 15C4, 86.6 pM, against human NT-proBNP
[10] = target: human pro B-type natriuretic peptide (HyTest, Turku, Finland; Catalog No. 8PRO8) (human); assay: as above
[11] = target: glycosylated human proBNP (HyTest, Turku, Finland; Catalog No. 8GOB2) (human); assay: sandwich CMIA, capture 15C4, 43.3 pM, against human NT-proBNP
[12] = target: human pro B-type natriuretic peptide (HyTest, Turku, Finland; Catalog No. 8PRO8) (human); assay: as above
[13] = target: glycosylated human proBNP (HyTest, Turku, Finland; Catalog No. 8GOB2) (human); assay: sandwich CMIA, capture 15C4, analyte 577.4 pM
[14] = target: human NT-pro B-type natriuretic peptide (HyTest, Turku, Finland; Catalog No. 8NT1) (human); assay: sandwich CMIA, capture 15C4, analyte 577.4 pM
[15] = target: human pro B-type natriuretic peptide (HyTest, Turku, Finland; Catalog No. 8PRO8) (human); assay: sandwich CMIA, capture 15C4, analyte 577.4 pM
[16] = target: glycosylated human proBNP (HyTest, Turku, Finland; Catalog No. 8GOB2) (human); assay: sandwich CMIA, capture 15C4, 577.4 pM, against human NT-proBNP
[17] = target: human pro B-type natriuretic peptide (HyTest, Turku, Finland; Catalog No. 8PRO8) (human); assay: as above
[18] = target: glycosylated human proBNP (HyTest, Turku, Finland; Catalog No. 8GOB2) (human); assay: sandwich CMIA, capture 15F11, 577.4 pM, against human NT-proBNP
[19] = target: human pro B-type natriuretic peptide (HyTest, Turku, Finland; Catalog No. 8PRO8) (human); assay: as above
[20] = target: glycosylated human proBNP (HyTest, Turku, Finland; Catalog No. 8GOB2) (human); assay: sandwich CMIA, capture 15F11, 288.7 pM, against human NT-proBNP
[21] = target: human pro B-type natriuretic peptide (HyTest, Turku, Finland; Catalog No. 8PRO8) (human); assay: as above
[22] = target: glycosylated human proBNP (HyTest, Turku, Finland; Catalog No. 8GOB2) (human); assay: sandwich CMIA, capture 15F11, analyte 0.0 pM (blank)
[23] = target: human NT-pro B-type natriuretic peptide (HyTest, Turku, Finland; Catalog No. 8NT1) (human); assay: as above
[24] = target: glycosylated human proBNP (HyTest, Turku, Finland; Catalog No. 8GOB2) (human); assay: sandwich CMIA, capture 15F11, analyte 577.4 pM
[25] = target: human NT-pro B-type natriuretic peptide (HyTest, Turku, Finland; Catalog No. 8NT1) (human); assay: sandwich CMIA, capture 15F11, analyte 577.4 pM
[26] = target: human pro B-type natriuretic peptide (HyTest, Turku, Finland; Catalog No. 8PRO8) (human); assay: sandwich CMIA, capture 15F11, analyte 577.4 pM
[27] = target: glycosylated human proBNP (HyTest, Turku, Finland; Catalog No. 8GOB2) (human); assay: sandwich CMIA, capture 15C4, analyte 43.3 pM
[28] = target: human NT-pro B-type natriuretic peptide (HyTest, Turku, Finland; Catalog No. 8NT1) (human); assay: sandwich CMIA, capture 15C4, analyte 43.3 pM
[29] = target: human pro B-type natriuretic peptide (HyTest, Turku, Finland; Catalog No. 8PRO8) (human); assay: sandwich CMIA, capture 15C4, analyte 43.3 pM
[30] = target: glycosylated human proBNP (HyTest, Turku, Finland; Catalog No. 8GOB2) (human); assay: sandwich CMIA, capture 15C4, 288.7 pM, against human NT-proBNP
[31] = target: human pro B-type natriuretic peptide (HyTest, Turku, Finland; Catalog No. 8PRO8) (human); assay: as above
[32] = target: glycosylated human proBNP (HyTest, Turku, Finland; Catalog No. 8GOB2) (human); assay: sandwich CMIA, capture 15C4, analyte 288.7 pM
[33] = target: human NT-pro B-type natriuretic peptide (HyTest, Turku, Finland; Catalog No. 8NT1) (human); assay: sandwich CMIA, capture 15C4, analyte 288.7 pM
[34] = target: human pro B-type natriuretic peptide (HyTest, Turku, Finland; Catalog No. 8PRO8) (human); assay: sandwich CMIA, capture 15C4, analyte 288.7 pM

Sequence of human pro B-type natriuretic peptide (HyTest, Turku, Finland; Catalog No. 8PRO8) (human) (chain, as listed by the source): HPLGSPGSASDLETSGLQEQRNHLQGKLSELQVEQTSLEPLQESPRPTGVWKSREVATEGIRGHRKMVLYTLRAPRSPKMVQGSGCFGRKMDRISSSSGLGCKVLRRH
Sequence of human NT-pro B-type natriuretic peptide (HyTest, Turku, Finland; Catalog No. 8NT1) (human) (chain, as listed by the source): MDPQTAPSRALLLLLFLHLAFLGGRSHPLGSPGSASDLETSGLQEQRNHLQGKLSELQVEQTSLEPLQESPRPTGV

Substance: anti-human NT-proBNP/anti-human proBNP labeled monoclonal antibody 29D12 (HyTest, Turku, Finland)
- Analyte rlus [1]: 4470 rlus
- Analyte rlus [2]: 3540 rlus
- Analyte rlus [3]: 2210 rlus
- % Cross-reactivity [4]: 132%
- % Cross-reactivity [5]: 61.2%
- Analyte rlus [6]: 2320 rlus
- Analyte rlus [7]: 1990 rlus
- Analyte rlus [8]: 1570 rlus
- % Cross-reactivity [9]: 0.7%
- % Cross-reactivity [10]: 16%
- % Cross-reactivity [11]: -0.2%
- % Cross-reactivity [12]: 16%
- Analyte rlus [13]: 1420 rlus
- Analyte rlus [14]: 180000 rlus
- Analyte rlus [15]: 25900 rlus
- % Cross-reactivity [16]: 0.3%
- % Cross-reactivity [17]: 14%
- % Cross-reactivity [18]: 115%
- % Cross-reactivity [19]: 31.8%
- % Cross-reactivity [20]: 113%
- % Cross-reactivity [21]: 38.3%
- Analyte rlus [22]: 912 rlus
- Analyte rlus [23]: 912 rlus
- Analyte rlus [24]: 38700 rlus
- Analyte rlus [25]: 33900 rlus
- Analyte rlus [26]: 11400 rlus
- Analyte rlus [27]: 877 rlus
- Analyte rlus [28]: 8870 rlus
- Analyte rlus [29]: 2170 rlus
- % Cross-reactivity [30]: 0.4%
- % Cross-reactivity [31]: 13.7%
- Analyte rlus [32]: 1220 rlus
- Analyte rlus [33]: 82800 rlus
- Analyte rlus [34]: 12100 rlus
